Experimental data from US8951961B2, “Structural and mechanistic basis for novel compound biosynthesis using 4-electron hexose oxidase” (Academia Sinica, priority 2009, dated 2015).
Numbering of substitutions follows the chain as printed. Names and notes keep the numbering of the source. Values after ≈ are worked out from the molar mass of the structure shown.

Tests used:
E. faecalis ATCC 29302 = assay: Minimum Inhibition Concentrations (MICs) Test; type: cell-based, Enterococcus Faecalis
E. faecalis ATCC 33186 = assay: Minimum Inhibition Concentrations (MICs) Test; type: cell-based, Enterococcus Faecalis
E. faecalis ATCC 51299 = assay: Minimum Inhibition Concentrations (MICs) Test; type: cell-based, Enterococcus Faecalis
E. faecalis ATCC 51559 = assay: Minimum Inhibition Concentrations (MICs) Test; type: cell-based, Enterococcus Faecalis
E. faecalis ATCC 700221 = assay: Minimum Inhibition Concentrations (MICs) Test; type: cell-based, Enterococcus Faecalis
S. Aureus ATCC 29213 = assay: Minimum Inhibition Concentrations (MICs) Test; type: cell-based, Staphylococcus Aureus
S. Aureus ATCC 700699 = assay: Minimum Inhibition Concentrations (MICs) Test; type: cell-based, Staphylococcus Aureus
E. faecalis (ATCC 51559) = assay: In vivo animal study, sepsis in mice; parameters: species or system ICR female mice; details: 10 mg/kg/dose i.v. twice a day, day 1 to day 3
Experimental: 12 ICR female mice with an average body weight of 27 g to 30 g were used in this experiment. Mice had free access to water and food at all time. Sepsis was induced in mice by intravenous (i.v.) injection of […] cfu/mouse of E. faecalis (ATCC 51559) on day 0. The mice were randomized into the following four treatment groups at the start of the experiment:
Each mouse received 10 mg/kg/dose of the medication by intravenous route, twice a day from day 1 to day 3, for a total of 6 doses. Mice were anesthetized and blood was taken from the orbital sinus on day 1, day 2, and day 3. The blood sample was diluted with PBS, plated on Brain Heart infusion agar (BHI agar; Difico, Detroit, Mich., USA) and cultured for colony formation unit.
Data were expressed as mean±SD and the statistical analysis was performed using SigmaStat®. Differences were considered to be significant if the P value was <0.05.

Dbv29 = assay: Relative enzymatic activities of Dbv29 mutants; type: biochemical, Nonomuraea sp. ATCC39727; details: relative to WT

CN[C@H](CC(C)C)C(=O)N[C@H]1C(=O)N[C@@H](CC(N)=O)C(=O)N[C@H]2C(=O)N[C@H]3C(=O)N[C@H](C(=O)N[C@H](C(=O)O)c4cc(O)cc(O)c4-c4cc3ccc4O)[C@H](O)c3ccc(c(Cl)c3)Oc3cc2cc(c3O[C@@H]2O[C@H](CO)[C@@H](O)[C@H](O)[C@H]2O[C@H]2C[C@](C)(N)[C@H](O)[C@H](C)O2)Oc2ccc(cc2Cl)[C@H]1O [Compound 1, vancomycin]
MIC (E. faecalis ATCC 29302; Enterococcus faecalis, ATCC29302): 1 µg/mL (≈ 0.69 µM) | MIC (E. faecalis ATCC 33186; Enterococcus faecalis, ATCC33186): 4 µg/mL (≈ 2.76 µM) | MIC (E. faecalis ATCC 51299; Enterococcus faecalis, ATCC 51299 / VRE): > 64 µg/mL | MIC (E. faecalis ATCC 51559; Enterococcus faecalis, ATCC 51559 / VRE): > 32 µg/mL | MIC (E. faecalis ATCC 700221; Enterococcus faecalis, ATCC700221): > 64 µg/mL | MIC (S. Aureus ATCC 29213; Staphylococcus aureus, ATCC29213): 1 µg/mL (≈ 0.69 µM) | MIC (S. Aureus ATCC 700699; Staphylococcus aureus, ATCC700699): 16 µg/mL (≈ 11 µM) | whole blood bacterial counts over the 3-day period (E. faecalis (ATCC 51559)): suppressed

Teicoplanin [Compound 4]
MIC (E. faecalis ATCC 29302; E. faecalis ATCC 29302, standard strain, no growth in duplicate): 0.125 µg/mL | MIC (E. faecalis ATCC 33186; E. faecalis ATCC 33186, antibiotics sensitive strain): 0.25 µg/mL | MIC (E. faecalis ATCC 51299; E. faecalis ATCC 51299, low level VRE): 0.5 µg/mL | MIC (E. faecalis ATCC 51559; E. faecalis ATCC 51559, multidrug-resistant strain (VRE)): >32 µg/mL | MIC (E. faecalis ATCC 700221; E. faecalis ATCC 700221, resistant to vancomycin): >32 µg/mL | MIC (S. Aureus ATCC 29213; S. Aureus ATCC 29213, methacillin-sensitive strain): 0.5 µg/mL | MIC (S. Aureus ATCC 700699; S. Aureus ATCC 700699, resistant to methacillin, reduced vancomycin susceptibility): 8 µg/mL | whole blood bacterial counts over the 3-day period (E. faecalis (ATCC 51559)): suppressed

B1: I401W (protein)
chain: MTGGTGADAASAGASSTRPELRGERCLPPAGPVKVTPDDPRYLNLKLRGANSRFNGEPDYIHLVGSTQQVADAVEETVRTGKRVAVRSGGHCFEDFVDNPDVKVIIDMSLLTEIAYDPSMNAFLIEPGNTLSEVYEKLYLGWNVTIPGGVCGGVGVGGHICGGGYGPLSRQFGSVVDYLYAVEVVVVNKQGKARVIVATRERDDPHHDLWWAHTGGGGGNFGVVTKYWMRVPEDVGRNPERLLPKPPATLLTSTVTFDWAGMTEAAFSRLLRNHGEWYERNSGPDSPYTGLWSQLMIGNEVPGMGESGFMMPIQVDATRPDARRLLDAHIEAVIDGVPPAEVPEPIEQRWLASTPGRGGRGPASKTKAGYLRKRLTDRQIQAVYENMTHMDGIDYGAVWLWGYGGKVNTVDPAATALPQRDAILKVNYITGWANPGNEAKHLTWVRKLYADVYAETGGVPVPNDVSDGAYINYPDSDLADPGLNTSGVPWHDLYYKGNHPRLRKVKAAYDPRNHFHHALSIRP
Relative activity (Dbv29): 0.02

B2: N44A (protein)
chain: B1 chain with N44A, W401I
Relative activity (Dbv29): 0.87

B3: R41A (protein)
chain: B1 chain with R41A, W401I
Relative activity (Dbv29): 0.72

B4: R360E (protein)
chain: B1 chain with R360E, W401I
Relative activity (Dbv29): 0.76

B5: R360L (protein)
chain: B1 chain with R360L, W401I
Relative activity (Dbv29): 0.23

B6: S364K (protein)
chain: B1 chain with S364K, W401I
Relative activity (Dbv29): 0.04

B7: S364R (protein)
chain: B1 chain with S364R, W401I
Relative activity (Dbv29): 0.08

B8: T366L (protein)
chain: B1 chain with T366L, W401I
Relative activity (Dbv29): 0.13

B9: Y165F (protein)
chain: B1 chain with Y165F, W401I
Relative activity (Dbv29): 0.70

B10: Y165W (protein)
chain: B1 chain with Y165W, W401I
Relative activity (Dbv29): 0.03

B11: Y370F (protein)
chain: B1 chain with Y370F, W401I
Relative activity (Dbv29): 0.10

B12: Y403F (protein)
chain: B1 chain with W401I, Y403F
Relative activity (Dbv29): 0.65

B13: Y428F (protein)
chain: B1 chain with W401I, Y428F
Relative activity (Dbv29): 1.00

B14: Y453F (protein)
chain: B1 chain with W401I, Y453F
Relative activity (Dbv29): 0.82

B15: Y470F (protein)
chain: B1 chain with W401I, Y470F
Relative activity (Dbv29): 0.21

B16: C26A (protein)
chain: B1 chain with C26A, W401I
Relative activity (Dbv29): 1.11

B17: Y473F (protein)
chain: B1 chain with W401I, Y473F
Relative activity (Dbv29): 0.23

B18: R41A/N44A (protein)
chain: B1 chain with R41A, N44A, W401I
Relative activity (Dbv29): 0.59

B19: R360E/T366E (protein)
chain: B1 chain with R360E, T366E, W401I
Relative activity (Dbv29): 0.03

B20: R360L/T366A (protein)
chain: B1 chain with R360L, T366A, W401I
Relative activity (Dbv29): 0.03

B21: R360L/T366E (protein)
chain: B1 chain with R360L, T366E, W401I
Relative activity (Dbv29): 0.01

B22: Y428F/Y453F (protein)
chain: B1 chain with W401I, Y428F, Y453F
Relative activity (Dbv29): 1.08

B23: Y370F/Y403F (protein)
chain: B1 chain with Y370F, W401I, Y403F
Relative activity (Dbv29): 0.05

B24: C92A (protein)
chain: B1 chain with C92A, W401I
Relative activity (Dbv29): 0.95
